Results taken from publication PMC10707033.
Like-named read-outs stand apart in the source and are kept apart here.

B1: synthetic SLURP-1 (natural protein)
chain: LKCYTCKEPMTSASCRTITRCKPEDTACMTTLVTVEAEYPFNQSPVVTRSCSSSCVATDPDSIGAAHLIFCCFRDLCNSEL
B2: recombinant SLURP-1 with one additional N-terminal Met residue (natural protein)
chain: MLKCYTCKEPMTSASCRTITRCKPEDTACMTTLVTVEAEYPFNQSPVVTRSCSSSCVATDPDSIGAAHLIFCCFRDLCNSEL

How the values were obtained:
[1] = target: muscle-type nicotinic acetylcholine receptor from the electric organ of Torpedo californica (Torpedo californica (endogenous in electric organ)) (UniProt P02710); experiment: radioligand binding
UniProt P02710, sequence (P02710 25-461 limits assumed, chain 1 of 4): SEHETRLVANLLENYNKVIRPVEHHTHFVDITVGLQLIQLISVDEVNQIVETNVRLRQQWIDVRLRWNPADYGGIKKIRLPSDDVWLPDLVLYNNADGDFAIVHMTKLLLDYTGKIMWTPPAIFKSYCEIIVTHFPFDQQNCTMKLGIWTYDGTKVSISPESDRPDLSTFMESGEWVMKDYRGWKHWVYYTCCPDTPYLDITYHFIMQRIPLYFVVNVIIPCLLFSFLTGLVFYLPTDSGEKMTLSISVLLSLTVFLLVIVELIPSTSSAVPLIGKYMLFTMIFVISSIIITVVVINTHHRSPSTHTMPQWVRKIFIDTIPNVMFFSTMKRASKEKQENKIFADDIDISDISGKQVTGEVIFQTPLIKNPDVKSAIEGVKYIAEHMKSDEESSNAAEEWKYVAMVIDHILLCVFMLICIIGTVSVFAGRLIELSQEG
UniProt P02710, sequence (P02712 25-493 limits assumed, chain 2 of 4, further chain): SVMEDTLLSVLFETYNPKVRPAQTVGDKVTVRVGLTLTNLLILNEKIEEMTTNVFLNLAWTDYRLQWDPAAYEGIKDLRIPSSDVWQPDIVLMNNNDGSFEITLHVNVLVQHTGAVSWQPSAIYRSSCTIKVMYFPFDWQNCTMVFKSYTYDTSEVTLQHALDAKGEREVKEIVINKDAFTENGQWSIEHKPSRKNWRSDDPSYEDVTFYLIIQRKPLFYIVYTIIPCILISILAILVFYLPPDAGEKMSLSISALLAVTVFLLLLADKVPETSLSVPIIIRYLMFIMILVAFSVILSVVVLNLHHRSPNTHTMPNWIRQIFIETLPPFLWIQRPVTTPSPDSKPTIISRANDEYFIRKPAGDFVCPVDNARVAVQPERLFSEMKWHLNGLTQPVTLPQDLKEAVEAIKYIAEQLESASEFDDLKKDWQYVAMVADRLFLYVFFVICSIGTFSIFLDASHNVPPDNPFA
UniProt P02710, sequence (P02714 18-506 limits assumed, chain 3 of 4, further chain): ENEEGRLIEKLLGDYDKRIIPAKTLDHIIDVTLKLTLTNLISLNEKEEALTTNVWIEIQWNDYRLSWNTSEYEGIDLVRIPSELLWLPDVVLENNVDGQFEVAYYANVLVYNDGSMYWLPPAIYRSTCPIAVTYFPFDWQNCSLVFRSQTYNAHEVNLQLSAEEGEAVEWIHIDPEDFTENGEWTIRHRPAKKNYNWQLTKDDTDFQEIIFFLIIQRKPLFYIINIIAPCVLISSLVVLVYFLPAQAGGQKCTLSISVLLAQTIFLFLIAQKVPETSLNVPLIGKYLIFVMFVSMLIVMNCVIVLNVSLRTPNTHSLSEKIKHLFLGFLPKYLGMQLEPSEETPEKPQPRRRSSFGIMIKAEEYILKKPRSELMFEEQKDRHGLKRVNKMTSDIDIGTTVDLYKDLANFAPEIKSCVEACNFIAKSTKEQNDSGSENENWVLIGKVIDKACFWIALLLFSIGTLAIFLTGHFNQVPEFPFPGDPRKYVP
UniProt P02710, sequence (P02718 22-522 limits assumed, chain 4 of 4, further chain): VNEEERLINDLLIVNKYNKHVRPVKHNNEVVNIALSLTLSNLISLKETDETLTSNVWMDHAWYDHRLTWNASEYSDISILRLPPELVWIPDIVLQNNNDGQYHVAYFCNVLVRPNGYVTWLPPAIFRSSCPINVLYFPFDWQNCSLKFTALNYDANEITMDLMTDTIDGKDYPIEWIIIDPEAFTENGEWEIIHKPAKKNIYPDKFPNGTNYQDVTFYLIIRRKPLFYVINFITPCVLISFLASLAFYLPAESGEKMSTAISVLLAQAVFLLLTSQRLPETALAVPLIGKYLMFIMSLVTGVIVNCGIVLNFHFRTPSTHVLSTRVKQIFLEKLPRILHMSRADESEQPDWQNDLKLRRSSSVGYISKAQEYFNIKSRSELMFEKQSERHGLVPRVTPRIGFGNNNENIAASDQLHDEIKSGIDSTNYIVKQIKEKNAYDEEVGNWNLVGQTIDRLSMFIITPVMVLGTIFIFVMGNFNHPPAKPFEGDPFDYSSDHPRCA

[2] = target: muscle-type nicotinic acetylcholine receptor from the electric organ of Torpedo californica (Torpedo californica (endogenous in electric organ)) (UniProt P02710); experiment: radioligand binding; remark: listed apart in the source

Binder	IC50 [1] [µM]	IC50 [2] [µM]
B1	3.92	4.05
B2	9.55	10.7
